# Assay results reported in patent US20080075726A1 (VACCINEX, published 2008).
# Biological target: T1, recombinant human IL-6 (human, UniProt P05231 30-212, limits assumed)
# T1 construct: also called rhIL6; human recombinant IL-6
# Assay: competition ELISA, rhIL-6 in solution against captured IL-6
# Experimental: Briefly, plates were coated with 2 μg/ml of mBE4 capture antibody in coating buffer, 100 μl per well. The plates were incubated overnight. Next, the plates were washed 3 times and tapped dry. The plates were then blocked with 200 μl per well of Assay Diluent or 10% FBS in PBS and incubated for 2 hours. […] The reaction was left at RT for 3-4 hours. […] Next, the plates were washed 3 times and tapped dry. […] The plates were incubated for 1-2 hours. The plates were washed 3 times and tapped dry. […] The plates were incubated at RT for 2 hours. (Therefore, any unbound mAb at this point will be measured by ELISA). Plates were then washed 5 times and tapped dry. 100 μl of detection Ab goat anti-human IgG F(ab)′2-HRP (Jackson lab) was added at 1:20,000 dilutions or 1:40,000 dilutions (depending on lot) and the plates were incubated for 1-2 hours. The plates were washed 7 times and tapped dry. Next, the Developer Substrate (equal parts of each reagent in the kit) was pre-mixed and allowed to warm to room temperature before use. Then 100 μl of Developer was added to each well. The plates were allowed to develop for 15 minutes un-sealed in a drawer in the dark. Finally, developing was stopped by adding 100 μl of 2N H₂SO₄ to each well and plates were read as Endpoint at 450 nm-[…].
row,IC50,Binder
1,5.5 nM,"mAb 246 (antibody, V domains shown) VH: QVTLKESGPTLVKPTQTLTLTCTFSGFSLSTSGVAVGWIRQPPGKALEWLALIFWDDDKHYSPSLKSRLTITKDTSKNQVVLTMTNMDPVDTATYYCARSYDDYLYYALDYWGQGTLVTVSS VL: EIVLTQSPGTLSLSPGERATLSCRASQTIDSSYLAWYQQKPGQAPRLLVYGASSRATGIPDRFSDSGSGTDFTLTISRLEPEDFAVYYCQQYAKSPITFGQGTKLE"
2,2 nM,"mAb 248 (antibody, V domains shown) VH: QVTLKESGPTLVKPTQTLTLTCTFSGFSLSTSGVAVGWIRQPPGKALEWLALIFWDDDKHYSPSLKSRLTITKDTSKNQVVLTMTNMDPVDTATYYCARSYDDYLYYALDYWGQGTLVTVSS VL: DIVMTQSPSSLSASVGDRVTITCRASQTISSYLNWYQQKPGKPPKLLIYAASSLESGVPSRFSGSGSGTEFTLTISSLQPEDLATYYCQQANSFPLTFGGGTKLE"
3,7.4 nM,"mAb 205 (antibody, V domains shown) VH: QVTLKESGPALVKPTQTLTLTCTFSGFSLTTSGMCVSWIRQPPGKALEWLALIYWDDDKRYNPSLRSRLTITKDTSKNQVVLTMTNMDPVDTATYYCARSHDDYLYYALDYWGQGTLVT VL: EIVLTQSPSSLSASVGDRVTISCRASQNIIDYLNWYQHKPGKVPTLLISGTSTLQSGVPSRFSGSGFGTDFTLTISSVQPEDVATYYCQQGHGTPLSFGGGTKLEIK"
4,2.2 nM,"mAb 242 (antibody, V domains shown) VH: QVTLKESGPTLVKPTQTLTLTCSFSGFSLSTSGVGVGWVRQPPGKALEWLAFIFWDDDKYYSPSLESRLTITKDTSKNQVVLTMTNMDPVDTATYYCARSYDDYLYYALDYWGQGTLVT VL: DIVMTQSPSSLSASVGDRVTITCRASQTISSYLNWYQQKPGKPPKLLIYAASSLESGVPSRFSGSGSGTEFTLTISSLQPEDLATYYCQQANSFPLTFGGGTKLE"
5,2.4 nM,"mAb 202 (antibody, V domains shown) VH: QVTLKESGPALVKPTQTLTLTCTFSGFSLTTSGMCVSWIRQPPGKALEWLALIYWDDDKRYNPSLRSRLTITKDTSKNQVVLTMTNMDPVDTATYYCARSHDDYLYYALDYWGQGTLVT VL: DIQMTQSPSSLSASVGDSVTITCRASQTISDFLNWYQQKPGKAPKLLIHASSNLQSGVPSRFSGSGSGTDFTLTISDLQPEDFATYSCQQTYSTLGTFGQGTRLE"
6,4 nM,"mAb 247 (antibody, V domains shown) VH: QVTLKESGPTLVKPTQTLTLTCTFSGFSLSTSGVAVGWIRQPPGKALEWLALIFWDDDKHYSPSLKSRLTITKDTSKNQVVLTMTNMDPVDTATYYCARSYDDYLYYALDYWGQGTLVTVSS VL: DVVMTQSPSSVSASVGDRVTITCRASQDIDNFLAWYQQKPGKAPNLLIYKVSSLRSGVPSRFSGSRSGTDFTLTITSLQPEDFATYFCQQTRRFPLTFGPGTKLE"
7,6.5 nM,"mAb 241 (antibody, V domains shown) VH: QVTLKESGPTLVKPTQTLTLTCSFSGFSLSTSGVGVGWVRQPPGKALEWLAFIFWDDDKYYSPSLESRLTITKDTSKNQVVLTMTNMDPVDTATYYCARSYDDYLYYALDYWGQGTLVT VL: DVVMTQSPSSVSASVGDRVTITCRASQDIDNFLAWYQQKPGKAPNLLIYKVSSLRSGVPSRFSGSRSGTDFTLTITSLQPEDFATYFCQQTRRFPLTFGPGTKLE"
8,6.5 nM,"mAb 237 (antibody, V domains shown) VH: QVTLKESGPTLVKPTQTLTLTCTFSGFSLRTSGVSVGWFRQPPGKALEWLALVYWDDDRRYNPSLKNRLTITRDTSKNQVVLTMTNMDPVDTATYYCARSYDDYLYYALDYWGQGTLVT VL: DVVMTQSPSSVSASVGDRVTITCRASQDIDNFLAWYQQKPGKAPNLLIYKVSSLRSGVPSRFSGSRSGTDFTLTITSLQPEDFATYFCQQTRRFPLTFGPGTKLE"
9,2.5 nM,"mAb 285 (antibody, V domains shown) VH: QVTLKESGPALVKPTQTLTLTCTFSGFSLSTSGMCVSWIRQPPGKALEWLTLIYWDDDKRYSPSLETRLTITKDTSKNQVVLTMTNMDPVDTATYYCARSYDDYLYYALDYWGQGTLVT VL: DVVMTQSPSSVSASVGDRVTITCRASQDIDNFLAWYQQKPGKAPNLLIYKVSSLRSGVPSRFSGSRSGTDFTLTITSLQPEDFATYFCQQTRRFPLTFGPGTKLE"

# Continued, binder first:
row,Binder,IC50
1,"mAb 201 (antibody, V domains shown) VH: QVTLKESGPALVKPTQTLTLTCTFSGFSLTTSGMCVSWIRQPPGKALEWLALIYWDDDKRYNPSLRSRLTITKDTSKNQVVLTMTNMDPVDTATYYCARSHDDYLYYALDYWGQGTLVT VL: DIQMTQSPSSLSAFVGDGVTMTCWASQSINDYLNWYHQRPGEAPELLVFAASNLQIGVPSRFRGSGSETYFTLTINSLQPEDSGTYFCQQTSSFPLTFGGGTKLE",2 nM
2,"mAb 123 (antibody, V domains shown) VH: QVTLKESGPALVKPTQTLTLTCTFSGFSLTTSGMCVSWIRQPPGKALEWLALIYWDDDKRYNPSLRSRLTITKDTSKNQVVLTMTNMDPVDTATYYCARSHDDYLYYALDYWGQGTLVT VL: DIVMTQSPATLSVTPGDRVSLSCRASQSISDYLHWYQQKSHESPRLLIKSVSQSISGIPSRFSGSGSGSDFTLSINSVEPEDVGVYYCQNGHSFPLTFGAGTKLELK",1.1 nM
3,"mAb 185 (antibody, V domains shown) VH: QVTLKESGPALVKPTQTLTLTCTFSGFSLTTSGMCVSWIRQPPGKALEWLALIYWDDDKRYNPSLRSRLTITKDTSKNQVVLTMTNMDPVDTATYYCARSYDDYLYYALDYWGQGTLVT VL: DVVMTQSPSSVSASVGDRVTITCRASQVIDSWLHWYQREPGKAPKILIYAATTLQRGVPSRFSGSGFGTEFTLTISGLQPEDFATYFCQQGYSFPITFGQGTRLEIK",1.5 nM
4,"mAb 193 (antibody, V domains shown) VH: QVTLKESGPALVKPTQTLTLTCTFSGFSLTTSGMCVSWIRQPPGKALEWLALIYWDDDKRYNPSLRSRLTITKDTSKNQVVLTMTNMDPVDTATYYCARSYDDYLYYALDYWGQGTLVT VL: EIVLTQSPSSLSASVGDRVTISCRASQNIIDYLNWYQHKPGKVPTLLISGTSTLQSGVPSRFSGSGFGTDFTLTISSVQPEDVATYYCQQGHGTPLSFGGGTKLEIK",2.7 nM
5,"mAb 286 (antibody, V domains shown) VH: QVTLKESGPALVKPTQTLTLTCTFSGFSLSTSGMCVSWIRQPPGKALEWLTLIYWDDDKRYSPSLETRLTITKDTSKNQVVLTMTNMDPVDTATYYCARSYDDYLYYALDYWGQGTLVT VL: DIVMTQSPSSLSASVGDRVTITCRASQTISSYLNWYQQKPGKPPKLLIYAASSLESGVPSRFSGSGSGTEFTLTISSLQPEDLATYYCQQANSFPLTFGGGTKLE",2.5 nM
6,"mAb 192 (antibody, V domains shown) VH: QVTLKESGPALVKPTQTLTLTCTFSGFSLTTSGMCVSWIRQPPGKALEWLALIYWDDDKRYNPSLRSRLTITKDTSKNQVVLTMTNMDPVDTATYYCARSYDDYLYYALDYWGQGTLVT VL: DIVMTQSPSSLSASVGDRVTITCRASRNINTYLNWYQQKPGKAPKLLVHSASTLQSGAPSRFSGSGYGTEFTLIISSLQPDDFATYYCQQGYNTLTFGPGTKLE",2.3 nM
7,"mAb 190 (antibody, V domains shown) VH: QVTLKESGPALVKPTQTLTLTCTFSGFSLTTSGMCVSWIRQPPGKALEWLALIYWDDDKRYNPSLRSRLTITKDTSKNQVVLTMTNMDPVDTATYYCARSYDDYLYYALDYWGQGTLVT VL: DIQMTQSPSSLSASVGDSVTITCRASQTISDFLNWYQQKPGKAPKLLIHASSNLQSGVPSRFSGSGSGTDFTLTISDLQPEDFATYSCQQTYSTLGTFGQGTRLE",1.9 nM
8,"mAb 197 (antibody, V domains shown) VH: QVTLKESGPALVKPTQTLTLTCTFSGFSLTTSGMCVSWIRQPPGKALEWLALIYWDDDKRYNPSLRSRLTITKDTSKNQVVLTMTNMDPVDTATYYCARSHDDYLYYALDYWGQGTLVT VL: DVVMTQSPSSVSASVGDRVTITCRASQVIDSWLHWYQREPGKAPKILIYAATTLQRGVPSRFSGSGFGTEFTLTISGLQPEDFATYFCQQGYSFPITFGQGTRLEIK",3.7 nM
9,"mAb 179 (antibody, V domains shown) VH: QVTLKESGPALVKPTQTLTLTCTFSGFSLTTSGMCVSWIRQPPGKALEWLALIYWDDDKRYNPSLRSRLTITKDTSKNQVVLTMTNMDPVDTATYYCARSYDDYLYYALDYWGQGTLVT VL: DIVMTQSPATLSVTPGDRVSLSCRASQSISDYLHWYQQKSHESPRLLIKSVSQSISGIPSRFSGSGSGSDFTLSINSVEPEDVGVYYCQNGHSFPLTFGAGTKLELK",0.85 to 4.2 nM
10,"mAb 181 (antibody, V domains shown) VH: QVTLKESGPALVKPTQTLTLTCTFSGFSLTTSGMCVSWIRQPPGKALEWLALIYWDDDKRYNPSLRSRLTITKDTSKNQVVLTMTNMDPVDTATYYCARSYDDYLYYALDYWGQGTLVT VL: DIVMTQSPSSLSASVGDRVTITCRASQTISSYLNWYQQKPGKPPKLLIYAASSLESGVPSRFSGSGSGTEFTLTISSLQPEDLATYYCQQANSFPLTFGGGTKLE",12.9 nM
11,"mAb 239 (antibody, V domains shown) VH: QVTLKESGPTLVKPTQTLTLTCIFSGFSFKTSGVSVGWIRQPPGKALEWLALIYWDDDKRYSPSLKNRLTITRDTSKNQVVLTMTNMDPVDTATYYCARSYDDYLYYALDYWGQGTLVT VL: DVVMTQSPSSVSASVGDRVTITCRASQDIDNFLAWYQQKPGKAPNLLIYKVSSLRSGVPSRFSGSRSGTDFTLTITSLQPEDFATYFCQQTRRFPLTFGPGTKLE",9.6 nM
